Earlier results as cited in paper PMC7465391, “1,4-Disubstituted 1,2,3-Triazoles as Amide Bond Surrogates for the Stabilisation of Linear Peptides with Biological Activity” (Molecules, 2020).

Biological target: delta opioid receptor (DOPr) (UniProt P41143)
Experiment: radioligand

## Leu-enkephalin
  Ki: 6.3 nM
